Entries after “also recorded” stand apart in the source; their conditions may differ.
Legend:
[1] = system: Pseudomonas aeruginosa UCBPP-PA14 biofilm; assay: MBEC (Minimal Biofilm Eradication Concentration) assay; type: cell-based; conditions: control sample with inactive variant SsoPox-5A8
P. aeruginosa biofilms = assay: Enumeration of bacteria recovered from biofilms after antiseptic or bleach treatment; type: cell-based, Pseudomonas aeruginosa; conditions: for bacteria recovered from the biofilm: 10 mM H2O2 for 1.5 hours
Procedure: (§1) Bacterial biofilms are formed by bacterial growth in a medium and conditions adapted to the bacteria studied in the presence or absence of the lactonase SsoPox-W263I of sequence SEQ ID NO: 2.
(§2) Bacteria are pre-cultured for 6 hours in oxygenated flasks under the conditions indicated in Table 1 and then MBEC plates are plated by diluting the pre-culture to 1:1000 in the presence or absence of SsoPox-W263I lactonase at 0.5 mg/mL. After 24 hours of growth, the bacterial biofilms formed on the spikes of the MBEC plate cover are rinsed by immersion for 5 minutes in a buffer solution (Table 1). The biofilms are then immersed in a buffer solution containing antimicrobial agents (disinfectants, bactericidal or bacteriostatic antibiotics, bacteriophages, biocides) for a period of time representative of the mechanism of action of the antimicrobial agent studied (1.5 h for antiseptics, 3 h for antibiotics, 4 h for phages). After immersion in the antimicrobial agents, the bacterial biofilms were rinsed for 5 minutes in a buffer solution and then incubated for 1 hour in a nutrient medium adapted to the bacteria studied and containing detergents to detach the biofilms (Table 1). After 1 hour of incubation, the bacteria detached from the biofilm and thus present in the wells of the MBEC plate are serially diluted and plated on suitable nutrient agar to perform bacterial counts and determine the number of bacteria that survived the combined treatment of the mutated SsoPox-W263I enzyme and the antimicrobial agent (FIG. 1). The MBEC is the minimum concentration of antimicrobial agent to eradicate the bacteria in the biofilm.

[2] = system: Pseudomonas aeruginosa UCBPP-PA14 biofilm; assay: MBEC (Minimal Biofilm Eradication Concentration) assay; type: cell-based; conditions: for MBEC: P. aeruginosa UCBPP-PA14 biofilm; for factor of decrease of the concentration required to eliminate the biofilms in presence of SsoPox-W263I: P. aeruginosa biofilms, with vs without SsoPox-W263I
Procedure: (§3) The doses of antimicrobial agents required to eliminate bacterial biofilms are determined using the “MBEC (Minimal Biofilm Eradication Concentration) Assay TM” technique developed by Innovotech (Alberta, Canada) according to the supplier's data.
as §1, §2

[3] = system: Chromobacterium violaceum ATCC-12472 biofilm; assay: as above; type: cell-based; conditions: C. violaceum ATCC-12472 biofilm
Procedure: as §3, §1, §2

[4] = system: CRISPR-Cas system genes in Chromobacterium violaceum CV12472; assay: Gene expression of the CRISPR-Cas system (RT-PCR); type: cell-based; conditions: C. violaceum CV12472; vs inactive SsoPox-5A8
Procedure: (§4) FIG. 3: Expression changes of the CRISPR-Cas system. Expression of the CRISPR-Cas system genes casl, cas3, csy1, csy2, csy3 and csy4 was measured for the P. aeruginosa model strain PA14 as well as for clinical isolates from diabetic foot infections (All, B10, C5, C11, D10 and F3) and for the marine bacterium Chromobacterium violaceum CV12472. […] Error bars represent variations for 2 technical duplicates of 2 biological replicates. *p-values<0.05, *p-values<0.01, ***p-values<0.001 by Student's t-test.
(§5) After 16 hours of culture (stationary phase), the bacteria were recovered by centrifugation.
RNAs were extracted and purified with the PureLink® RNA mini kit (ThermoFisher) according to the supplier's recommendations and then treated with the TURBO DNA-free™ kit (ThermoFisher) to remove genomic DNA contamination. Samples were checked for quality by 1.5% agarose gel migration and the amount of nucleic acid was measured with a NanoDrop 2000 spectrophotometer (Thermo Scientific) at OD260 nm. […] RT-PCR was then performed using the LuminoCt® SYBR® Green qPCR ReadyMix™ kit and a CFX thermocycler (Bio-Rad) and specific primer pairs. […] Sample fluorescence is measured at the end of each cycle and denaturation curves were analysed with CFX Manager™ software (Bio-Rad). […]

[5] = system: Pseudomonas aeruginosa PA14; assay: Susceptibility to Intesti phage cocktail; type: cell-based; conditions: enzyme 0.5 mg/mL, phage cocktail 0 to 50% (vol/vol)
Procedure: FIG. 2: Increased susceptibility of Pseudomonas aeruginosa PA14 to Intesti phage cocktail.
as §2
The Intesti phage cocktail consists of a mixture of sterile filtrates of phages directed against Shigella flexneri (serovariants 1, 2, 3, 4, 6), Shigellasi, Proteus vulgaris, Proteus mirabilis, Enterococcus, Staphylococcus, Pseudomonas aeruginosa and excipients such as 8-hydroxyquinoline sulfate monohydrate at 0.0001 g/ml (estimated content) and is marketed by Intesti-bacteriophage, Microgen, Russia

[6] = system: CRISPR-Cas system genes cas1, cas3, csy1, csy2, csy3 and csy4 in P. aeruginosa PA14 and clinical isolates; assay: Gene expression of the CRISPR-Cas system (RT-PCR); type: cell-based, Pseudomonas aeruginosa; conditions: vs inactive SsoPox-5A8
Procedure: as §4, §5
RNAs were extracted and purified with the PureLink® RNA mini kit (ThermoFisher) according to the supplier's recommendations and then treated with the TURBO DNA-free™ kit (ThermoFisher) to remove genomic DNA contamination. Samples were checked for quality by 1.5% agarose gel migration and the amount of nucleic acid was measured with a NanoDrop 2000 spectrophotometer (Thermo Scientific) at OD260 nm. Complementary DNAs (cDNAs) were synthesised using the TaqMan® Reverse Transcription Reagents kit (ThermoFisher) according to the manufacturer's recommendations. RT-PCR was then performed using the LuminoCt® SYBR® Green qPCR ReadyMix™ kit and a CFX thermocycler (Bio-Rad) and specific primer pairs. PCR amplification was performed with the following method: Denaturation for 5 minutes at 94° C., followed by 29 cycles of [1 minute at 94° C., 1 minute at 55° C., 30 seconds at 72° C.] for amplification, then a final elongation step for 7 minutes at 72° C. Sample fluorescence is measured at the end of each cycle and denaturation curves were analysed with CFX Manager™ software (Bio-Rad). Gene expression was normalised by expression of a 5S RNA housekeeping gene.

OO [H2O2]
antiseptic required to completely eradicate the biofilm [1]: 100 mM
bacteria recovered from the biofilm (P. aeruginosa biofilms; without the lactonase): 104-105 bacterial cells
MBEC ([2]; with SsoPox W263I 0.5 mg/mL): 10 mM
MBEC ([2]; without SsoPox W263I): 100 mM
factor of decrease of the concentration required to eliminate the biofilms in presence of SsoPox-W263I [2]: 10

CN(C)S(=O)(=O)N(SC(F)(Cl)Cl)c1ccccc1 [Preventol A4S, Dichlofluanide]
MBEC ([3]; with SsoPox W263I 0.5 mg/mL): >10 µM
MBEC ([3]; without SsoPox W263I): <200 µM

NC[C@H]1O[C@H](O[C@H]2[C@H](O)[C@@H](O[C@H]3O[C@H](CO)[C@@H](O)[C@H](N)[C@H]3O)[C@H](N)C[C@@H]2N)[C@H](N)C[C@@H]1O [Tobramycin]
MBEC ([2]; with SsoPox W263I 0.5 mg/mL): 1 µg/mL
MBEC ([2]; without SsoPox W263I): 10 µg/mL
factor of decrease of the concentration required to eliminate the biofilms in presence of SsoPox-W263I [2]: 10

Gentamicin
MBEC ([2]; with SsoPox W263I 0.5 mg/mL): 2 µg/mL
MBEC ([2]; without SsoPox W263I): 20 µg/mL
factor of decrease of the concentration required to eliminate the biofilms in presence of SsoPox-W263I [2]: 10

B1: SsoPox-W263I: mutated hyperthermophilic lactonase of Sulfolobus solfataricus (SsoPox), tryptophan at position 263 substituted by isoleucine, SEQ ID NO: 2 (protein, listed as Sulfolobus solfataricus)
chain: MRIPLVGKDSIESKDIGFTLIHEHLRVFSEAVRQQWPHLYNEDEEFRNAVNEVKRAMQFGVKTIVDPTVMGLGRDIRFMEKVVKATGINLVAGTGIYIYIDLPFYFLNRSIDEIADLFIHDIKEGIQGTLNKAGFVKIAADEPGITKDVEKVIRAAAIANKETKVPIITHSNAHNNTGLEQQRILTEEGVDPGKILIGHLGDTDNIDYIKKIADKGSFIGLDRYGLDLFLPVDKRNETTLRLIKDGYSDKIMISHDYCCTIDIGTAKPEYKPKLAPRWSITLIFEDTIPFLKRNGVNEEVIATIFKENPKKFFS
expression of the cas3 and csy2-4 genes [4]: significantly reduced
sensitivity of bacteria to Intesti phage cocktail (number of bacteria counted) [5]: more sensitive
sensitivity of bacteria to Intesti phage cocktail (number of bacteria counted) ([5]; listed as W263I mutated lactonase): satisfactory results
decrease in number of bacteria recovered from biofilms (P. aeruginosa biofilms; 0.7 mM NaOCl and SsoPox-W263I, compared to NaOCl alone): 2 Log
bacteria recovered from the biofilm (P. aeruginosa biofilms; biofilm formed with SsoPox-W263I): no bacteria are recovered; also recorded: significantly reduces
number of bacteria recovered from the biofilm, combination vs either agent alone (P. aeruginosa biofilms; sodium hypochlorite in combination with W263I mutated lactonase): significantly reduces
number of bacteria recovered from biofilms (P. aeruginosa biofilms; without NaOCl treatment, with vs without W263I mutated lactonase): same number of bacteria
number of bacteria recovered from biofilms (P. aeruginosa biofilms; without antiseptic treatment, with vs without SsoPox-W263I): same number of bacteria
expression of CRISPR-Cas genes ([6]; P. aeruginosa PA14): completely abolished
expression of the csy1-4 genes ([6]; clinical isolate A11): significantly reduced
factor of decrease of CRISPR-Cas gene expression ([6]; clinical isolate B10): 5.5
factor of decrease of CRISPR-Cas gene expression ([6]; clinical isolate C11): 8
expression of the csy1-4 genes ([6]; clinical isolate D10): significantly reduced
factor of increase of CRISPR-Cas gene expression, on average ([6]; clinical isolate F3): 1.7

B2: SsoPox-5A8: inactive variant of SsoPox (V27G/P67Q/L72C/Y97S/Y99A/T177D/R223L/L226Q/L228M/W263H) (protein, UniProt Q97VT7 1-314, looked up, variant V27G P67Q L72C Y97S Y99A T177D R223L L226Q L228M W263H)
Aryldialkylphosphatase: MRIPLVGKDSIESKDIGFTLIHEHLRGFSEAVRQQWPHLYNEDEEFRNAVNEVKRAMQFGVKTIVDQTVMGCGRDIRFMEKVVKATGINLVAGTGISIAIDLPFYFLNRSIDEIADLFIHDIKEGIQGTLNKAGFVKIAADEPGITKDVEKVIRAAAIANKETKVPIITHSNAHNNDGLEQQRILTEEGVDPGKILIGHLGDTDNIDYIKKIADKGSFIGLDLYGQDMFLPVDKRNETTLRLIKDGYSDKIMISHDYCCTIDHGTAKPEYKPKLAPRWSITLIFEDTIPFLKRNGVNEEVIATIFKENPKKFFS
sensitivity of bacteria to Intesti phage cocktail (number of bacteria counted) [5]: little impacted
